Test results as given in US20260042848A1.

Molecular target: native human AXL on non-transfected human cell lines (A-431, A-549, HeLa, MDA-MB-231, NCI-H1299) (human) (UniProt P30530)
Test: cell-based or functional assay

native human AXL on non-transfected human cell lines (A-431, A-549, HeLa, MDA-MB-231, NCI-H1299) (human), sequence (P30530 26-894 limits assumed): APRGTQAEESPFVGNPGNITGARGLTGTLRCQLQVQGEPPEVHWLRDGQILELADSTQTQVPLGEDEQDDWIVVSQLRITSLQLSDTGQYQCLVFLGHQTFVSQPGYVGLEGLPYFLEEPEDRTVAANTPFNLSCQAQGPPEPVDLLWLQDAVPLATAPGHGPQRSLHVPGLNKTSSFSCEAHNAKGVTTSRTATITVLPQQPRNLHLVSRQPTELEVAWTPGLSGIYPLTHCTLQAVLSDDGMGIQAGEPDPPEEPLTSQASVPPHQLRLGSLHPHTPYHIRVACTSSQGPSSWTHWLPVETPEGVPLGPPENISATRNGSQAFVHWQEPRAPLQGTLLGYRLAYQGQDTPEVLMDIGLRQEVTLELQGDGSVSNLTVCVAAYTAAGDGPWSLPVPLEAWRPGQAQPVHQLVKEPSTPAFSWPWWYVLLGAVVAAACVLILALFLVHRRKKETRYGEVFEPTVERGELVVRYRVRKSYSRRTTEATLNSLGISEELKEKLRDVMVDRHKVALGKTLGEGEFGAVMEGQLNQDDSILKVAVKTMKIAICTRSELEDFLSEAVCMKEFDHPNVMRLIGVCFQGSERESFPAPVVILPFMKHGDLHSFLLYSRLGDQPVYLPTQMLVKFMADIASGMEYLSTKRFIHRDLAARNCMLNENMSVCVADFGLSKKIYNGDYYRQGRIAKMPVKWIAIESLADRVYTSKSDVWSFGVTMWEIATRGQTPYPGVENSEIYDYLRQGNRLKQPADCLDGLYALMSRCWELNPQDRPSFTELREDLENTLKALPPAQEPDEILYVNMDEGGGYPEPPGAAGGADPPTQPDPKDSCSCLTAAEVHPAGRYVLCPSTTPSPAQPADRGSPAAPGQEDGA

AKT phosphorylation in H1299 cells without Gas6; APC-A Geometric mean; p-AKT APC + isotype control: 4380 | AKT phosphorylation in H1299 cells without Gas6; Median: APC-A; p-AKT APC + isotype control: 4430 | ERK phosphorylation in H1299 cells without Gas6; APC-A Geometric mean; p-ERK A647 + isotype control: 965 | ERK phosphorylation in H1299 cells without Gas6; Median: APC-A; p-ERK A647 + isotype control: 274 | Gas6 induced AKT phosphorylation in H1299 cells; APC-A Geometric mean; p-AKT APC + isotype control + Gas6: 8380 | Gas6 induced AKT phosphorylation in H1299 cells; Median: APC-A; p-AKT APC + isotype control + Gas6: 9120 | Gas6 induced ERK phosphorylation in H1299 cells; APC-A Geometric mean; p-ERK A647 + isotype control + Gas6: 1320 | Gas6 induced ERK phosphorylation in H1299 cells; Median: APC-A; p-ERK A647 + isotype control + Gas6: 1020
Substance: isotype control (Example 5) (antibody)
